Assay [1] deals with T1, mouse serum albumin (MSA) (mouse, UniProt P07724 25-608). Description: fluorescence polarization.
Assay [2] concerns the target T1, mouse serum albumin (MSA).
Another assay concerns the target T2, FXIIa (Factor XIIa) (human, UniProt P00748 373-615).
T2 chain: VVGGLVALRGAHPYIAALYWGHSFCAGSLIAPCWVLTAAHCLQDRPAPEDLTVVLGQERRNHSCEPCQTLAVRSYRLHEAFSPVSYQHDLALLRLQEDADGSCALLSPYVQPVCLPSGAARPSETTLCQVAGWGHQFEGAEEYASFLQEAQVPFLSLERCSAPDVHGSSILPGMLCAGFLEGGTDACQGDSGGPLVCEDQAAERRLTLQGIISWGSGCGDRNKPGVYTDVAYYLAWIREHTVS

The target in the next assay is trypsin (human). Description: enzyme inhibition.
Assay [3] concerns the target human Kallikrein-related peptidase 5 (hKLK5) (human, UniProt Q9Y337 67-293). Description: enzyme inhibition.
The next assay has as its target thrombin. Put plainly: enzyme inhibition.
The target of the next assay is PK. Put plainly: enzyme inhibition.
The target in a further assay is tPA. Put plainly: enzyme inhibition.
Another assay deals with uPA. Put plainly: enzyme inhibition.
A further assay addresses plasmin. Put plainly: enzyme inhibition.
Assay [4] addresses human serum albumin (HSA) (human, UniProt P02768 25-609). Description: fluorescence polarization; human serum dilution.

The record followed here is patent US20220267379A1 (published 2022).

Read-outs that look alike come from different tables or passages of the source. Positions of bridges follow the written chain, without caps; N, C: chain ends. Non-standard residues stand in square brackets, D forms with d. Primed or numbered codes have the meaning given here. Chains are numbered I, II in the order given. No end group written: not given here. *: point of attachment. Palmitoyl = CCCCCCCCCCCCCCCC(=O)*; PEG2″ = not defined here

T1 sequence (P07724 25-608): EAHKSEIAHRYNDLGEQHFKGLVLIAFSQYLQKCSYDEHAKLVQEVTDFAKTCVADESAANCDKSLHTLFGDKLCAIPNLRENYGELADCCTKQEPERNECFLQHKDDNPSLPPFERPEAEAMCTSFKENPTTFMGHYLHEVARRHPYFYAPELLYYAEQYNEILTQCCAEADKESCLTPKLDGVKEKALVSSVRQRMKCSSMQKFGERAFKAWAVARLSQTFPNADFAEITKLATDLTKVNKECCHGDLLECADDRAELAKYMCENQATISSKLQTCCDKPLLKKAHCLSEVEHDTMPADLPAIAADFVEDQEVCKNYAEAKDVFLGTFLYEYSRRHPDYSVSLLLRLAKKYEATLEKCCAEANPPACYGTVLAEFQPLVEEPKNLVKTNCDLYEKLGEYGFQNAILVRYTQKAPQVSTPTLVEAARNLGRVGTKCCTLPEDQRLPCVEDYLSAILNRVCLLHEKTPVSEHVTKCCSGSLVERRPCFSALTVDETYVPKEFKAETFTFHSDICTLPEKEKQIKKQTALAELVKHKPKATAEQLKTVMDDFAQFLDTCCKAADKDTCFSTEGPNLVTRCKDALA
Sequence of human Kallikrein-related peptidase 5 (hKLK5) (Q9Y337 67-293): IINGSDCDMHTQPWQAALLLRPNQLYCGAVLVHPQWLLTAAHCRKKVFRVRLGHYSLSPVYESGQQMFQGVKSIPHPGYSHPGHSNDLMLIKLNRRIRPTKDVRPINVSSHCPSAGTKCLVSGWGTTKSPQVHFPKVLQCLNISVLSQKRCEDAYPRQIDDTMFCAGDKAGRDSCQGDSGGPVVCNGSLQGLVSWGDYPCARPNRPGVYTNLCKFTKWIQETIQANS

B1: KLK5 inhibitor 035-tag (C-terminal albumin tag conjugate of 035) (peptide)
peptide 1: GCTRQYPCGKG
peptide 2: EYEK(Palmitoyl)EYE
modifications: bridge I:2-I:8; not fully specified (N-terminus, C-terminus, bridges); also: albumin tag (chain 2) joined via PEG2 to side chain of Lys10 of chain 1, tag end used not given here, N-terminal fluorescein via PEG2, chain not given here
B1 had a Kd in assay [1] of 7 µM.

B2: albumin tag with fluorescein at the C-terminus (tag-F) (peptide)
peptide: EYEK(Palmitoyl)EYE-fluorescein
B2 registered an equilibrium dissociation constant (Kd) in assay [2] of 7.9 µM.

B3: SSSKSSS-tag (peptide)
peptide: SSSKSSS
modifications: not fully specified (residue 4, N-terminus); also: fluorescein as in the albumin tag
For the molecule B3, in assay [1], the dissociation constant (Kd) was 10.1 µM.

B4: peptide 035 (lead KLK5 inhibitor) (peptide)
peptide: GCTRQYPC
modifications: linker 2-8 via 1,3‑dibromoacetone
Consider B4, for which the Ki with FXIIa (Factor XIIa) turned out to be 43 µM; with trypsin, 60 µM; in assay [3], 0.01 µM.

B5: peptide 035 (peptide)
peptide: GCTRQYPC
modifications: linker 2-8 via 1,3‑dibromoacetone
For B5, the Ki with thrombin, with PK, in the assay with tPA, with uPA and with plasmin was above 100 µM each time.

B6: N-terminal albumin tag conjugate of KLK7 inhibitor 096 (peptide)
peptide 1: EYEK(Palmitoyl)EYE[PEG2″]
peptide 2: PCLYLARCS
modifications: bridge II:2-II:8; not fully specified (N-terminus, bridges); also: tag C-terminus joined through PEG2 to inhibitor N-terminus (one linear molecule)
With B6, the Kd in assay [4] came out at 0.168 µM.

B7: N-terminal albumin tag conjugate of KLK5 inhibitor 035 (peptide)
peptide 1: EYEK(Palmitoyl)EYE[PEG2″]
peptide 2: GCTRQYPC
modifications: bridge II:2-II:8; not fully specified (N-terminus, bridges); also: tag C-terminus joined through PEG2 to inhibitor N-terminus (one linear molecule)
In the case of B7, the Kd in [4] came out at 0.118 µM.
